Data taken from paper PMC9334453.

Biological target: murine monoclonal IgE antibody 2F5 (anti-profilin Hev b 8)
Experiment: ELISA
Conditions: chain shown with the change; n = 4; parent: est. 0.26; read off a plot

response: 0.4 Abs 405nm
B1: recombinant maize profilin (rZea m 12) E128D (protein)
chain: GMSWQAYVDDHLLCDIEGQHLSAAAIVGHDGSVWAQSENFPELKPEEVAGMIKDFDEPGTLAPTGLFVGGTKYMVIQGEPGVVIRGKKGTGGITIKKTGMSLIIGIYDEPMTPGQCNMVVERLGDYLIDQGF
